This passage reports FRET efficiency results from paper PMC4652344.

This assay has as its target sulfonylurea receptor 1 (Sur1) (mouse (endogenous in lumbar spinal cord)). Put plainly: FRET or BRET; immunoFRET on 7 um cryosections of lumbar spinal cord of pid-30 WT/EAE mice; custom anti-Sur1 and anti-Trpm4 primary antibodies, secondary antibodies conjugated with Cy3 or Cy5; control: omission of one of the two primary antibodies. A general note: BRET reads energy transfer from a luciferase to a nearby fluorophore.

Sequence of sulfonylurea receptor 1 (Sur1) (mouse (endogenous in lumbar spinal cord)) (B2RUS7 entry or part of it): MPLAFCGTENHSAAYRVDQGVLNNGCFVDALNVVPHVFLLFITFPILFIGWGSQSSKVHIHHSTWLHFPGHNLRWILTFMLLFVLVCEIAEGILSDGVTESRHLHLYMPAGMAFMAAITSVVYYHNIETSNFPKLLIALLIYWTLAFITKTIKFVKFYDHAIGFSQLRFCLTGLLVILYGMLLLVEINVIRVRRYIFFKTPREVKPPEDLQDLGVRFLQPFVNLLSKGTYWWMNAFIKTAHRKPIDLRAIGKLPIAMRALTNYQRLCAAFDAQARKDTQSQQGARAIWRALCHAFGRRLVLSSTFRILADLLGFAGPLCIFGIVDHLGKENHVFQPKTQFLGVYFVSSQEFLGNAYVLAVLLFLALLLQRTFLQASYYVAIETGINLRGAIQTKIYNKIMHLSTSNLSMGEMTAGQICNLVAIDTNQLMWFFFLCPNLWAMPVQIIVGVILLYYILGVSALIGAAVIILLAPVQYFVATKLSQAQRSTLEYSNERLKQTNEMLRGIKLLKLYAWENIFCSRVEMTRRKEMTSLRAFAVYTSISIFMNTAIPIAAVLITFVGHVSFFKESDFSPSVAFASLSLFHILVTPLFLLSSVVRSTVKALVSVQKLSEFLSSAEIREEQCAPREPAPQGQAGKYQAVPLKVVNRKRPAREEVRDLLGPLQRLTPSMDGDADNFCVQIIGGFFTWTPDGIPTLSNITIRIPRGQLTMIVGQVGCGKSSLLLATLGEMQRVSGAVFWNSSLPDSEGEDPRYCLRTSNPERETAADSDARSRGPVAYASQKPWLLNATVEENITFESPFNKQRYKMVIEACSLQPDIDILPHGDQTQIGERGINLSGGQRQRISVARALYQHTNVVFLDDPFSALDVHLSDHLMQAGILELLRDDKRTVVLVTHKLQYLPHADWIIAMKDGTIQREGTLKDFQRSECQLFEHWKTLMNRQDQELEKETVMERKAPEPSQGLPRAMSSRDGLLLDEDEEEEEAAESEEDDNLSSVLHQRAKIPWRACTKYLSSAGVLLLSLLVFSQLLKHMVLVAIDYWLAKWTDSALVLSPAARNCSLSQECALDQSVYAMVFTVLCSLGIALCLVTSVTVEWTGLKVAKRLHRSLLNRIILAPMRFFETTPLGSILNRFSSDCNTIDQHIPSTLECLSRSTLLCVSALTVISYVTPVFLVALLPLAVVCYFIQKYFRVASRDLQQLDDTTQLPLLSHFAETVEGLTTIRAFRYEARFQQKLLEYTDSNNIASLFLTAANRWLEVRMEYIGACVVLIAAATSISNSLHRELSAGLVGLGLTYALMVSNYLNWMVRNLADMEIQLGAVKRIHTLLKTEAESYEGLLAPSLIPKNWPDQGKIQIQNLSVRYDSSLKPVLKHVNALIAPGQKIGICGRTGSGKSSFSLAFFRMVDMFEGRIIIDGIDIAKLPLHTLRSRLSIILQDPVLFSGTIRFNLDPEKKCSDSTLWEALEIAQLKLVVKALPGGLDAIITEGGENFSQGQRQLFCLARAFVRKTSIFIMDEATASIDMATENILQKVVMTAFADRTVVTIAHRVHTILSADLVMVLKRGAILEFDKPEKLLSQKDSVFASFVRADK

The substance “transient receptor potential melastatin 4 (Trpm4) (from UniProt Q7TN37 1-1213) (natural protein)” came in with an FRET efficiency of 10 to 14%.
